Results from PMC12070071, “The Drosophila pseudokinase Tribbles translocates to the fat body membrane in response to fasting to modulate insulin sensitivity” (Development (Cambridge, England), 2025).

T1: Drosophila Tribbles activation loop mutant Trbl^SLE/G, yeast two-hybrid bait (Drosophila, UniProt Q9V3Z1 1-484, SLE/G (replacement of E286 with glycine))
T1 construct: also called pDEST32-Trbl^SLE/G; source: yeast two-hybrid fusion (MaV203 yeast)
T1 sequence (looked up): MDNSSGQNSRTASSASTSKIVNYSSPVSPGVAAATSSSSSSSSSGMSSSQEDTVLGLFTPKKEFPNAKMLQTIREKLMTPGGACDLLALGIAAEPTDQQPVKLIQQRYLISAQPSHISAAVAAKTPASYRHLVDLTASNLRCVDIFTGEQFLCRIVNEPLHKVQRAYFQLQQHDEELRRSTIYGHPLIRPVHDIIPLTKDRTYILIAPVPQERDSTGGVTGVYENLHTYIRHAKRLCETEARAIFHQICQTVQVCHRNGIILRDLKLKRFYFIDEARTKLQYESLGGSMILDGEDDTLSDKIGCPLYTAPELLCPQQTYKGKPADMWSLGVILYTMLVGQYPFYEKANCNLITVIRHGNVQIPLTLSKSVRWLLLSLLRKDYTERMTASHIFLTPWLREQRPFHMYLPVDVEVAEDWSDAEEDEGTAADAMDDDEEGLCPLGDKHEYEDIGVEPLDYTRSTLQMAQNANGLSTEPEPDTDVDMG

B1: Drosophila Tribbles (Trbl), wild type, yeast two-hybrid fusion (natural protein, UniProt Q9V3Z1 1-484, looked up)
chain: MDNSSGQNSRTASSASTSKIVNYSSPVSPGVAAATSSSSSSSSSGMSSSQEDTVLGLFTPKKEFPNAKMLQTIREKLMTPGGACDLLALGIAAEPTDQQPVKLIQQRYLISAQPSHISAAVAAKTPASYRHLVDLTASNLRCVDIFTGEQFLCRIVNEPLHKVQRAYFQLQQHDEELRRSTIYGHPLIRPVHDIIPLTKDRTYILIAPVPQERDSTGGVTGVYENLHTYIRHAKRLCETEARAIFHQICQTVQVCHRNGIILRDLKLKRFYFIDEARTKLQYESLEGSMILDGEDDTLSDKIGCPLYTAPELLCPQQTYKGKPADMWSLGVILYTMLVGQYPFYEKANCNLITVIRHGNVQIPLTLSKSVRWLLLSLLRKDYTERMTASHIFLTPWLREQRPFHMYLPVDVEVAEDWSDAEEDEGTAADAMDDDEEGLCPLGDKHEYEDIGVEPLDYTRSTLQMAQNANGLSTEPEPDTDVDMG
notes: Tribbles (Trbl), Drosophila pseudokinase; WT Trbl ORF; One molecule for both two-hybrid copies: each copy carries only one of the two tags; also called WT Trbl; pDEST32-Trbl; source: yeast two-hybrid fusion (MaV203 yeast)

Key:
[1] = target: T1, Drosophila Tribbles activation loop …; assay: two-hybrid; MaV203 yeast; bait in pDEST32, prey in pDEST22; colony growth of co-transformants on media with increasing concentrations of 3-AT (His3 reporter); details: partners not purified
[2] = target: B1; assay: as above; details: partners not purified

highest 3AT concentration with growth [1] [mM 3AT] | highest 3AT concentration with growth [2] [mM 3AT] | Binder
100 | 50 | Drosophila Akt, yeast two-hybrid prey (pDEST22-dAkt) (natural protein, UniProt Q8INB9 1-611, looked up, Akt kinase, Drosophila (dAkt); Akt open reading frame amplified from an Akt cDNA (Origene); source: yeast two-hybrid fusion (MaV203 yeast)) MNYLPFVLQRRSTVVASAPAPGSASRIPESPTTTGSNIINIIYSQSTHPNSSPTSGSAEKFSWQQSWPSRTSAAPTHDSGTMSINTTFDLSSPSVTSGHALTEQTQVVKEGWLMKRGEHIKNWRQRYFVLHSDGRLMGYRSKPADSASTPSDFLLNNFTVRGCQIMTVDRPKPFTFIIRGLQWTTVIERTFAVESELERQQWTEAIRNVSSRLIDVGEVAMTPSEQTDMTDVDMATIAEDELSEQFSVQGTTCNSSGVKKVTLENFEFLKVLGKGTFGKVILCREKATAKLYAIKILKKEVIIQKDEVAHTLTESRVLKSTNHPFLISLKYSFQTNDRLCFVMQYVNGGELFWHLSHERIFTEDRTRFYGAEIISALGYLHSQGIIYRDLKLENLLLDKDGHIKVADFGLCKEDITYGRTTKTFCGTPEYLAPEVLDDNDYGQAVDWWGTGVVMYEMICGRLPFYNRDHDVLFTLILVEEVKFPRNITDEAKNLLAGLLAKDPKKRLGGGKDDVKEIQAHPFFASINWTDLVLKKIPPPFKPQVTSDTDTRYFDKEFTGESVELTPPDPTGPLGSIAEEPLFPQFSYQGDMASTLGTSSHISTSTSLASMQ
100 | – | B1
